Key:
[1] = target: SARS‐CoV‐2 N‐terminal domain (NTD) protein (SARS-CoV-2 WT, UniProt P0DTC2, N-linked glycans (complex glycosylation, migrates at 40-70 kDa)); experiment: ELISA; details: both partners purified
[2] = target: PNGase F‐treated NTD protein (SARS-CoV-2 WT, UniProt P0DTC2, N-linked glycans removed with PNGase F (nearly complete deglycosylation)); experiment: ELISA; details: both partners purified
[3] = target: Horseradish peroxidase (HRP)‐labeled NTD protein (SARS-CoV-2, WT assumed, UniProt P0DTC2, horseradish peroxidase (HRP) label); experiment: ELISA; details: both partners purified
[4] = target: SARS‐CoV‐2 (WT) spike expressed on HEK293T cells (SARS-CoV-2, UniProt P0DTC2); experiment: flow cytometry on cells; details: one partner purified

Measured: binding result

B1: mAb 3711 (antibody, V domains shown)
VH: EVQLVESGGGLVKPGRSLRLSCAASGFTFSDYYMSWIRQAPGKGLEWVSYISSSGSTIYYADSVRGRFTISRDNAKNSLYLQMNTLRAEDTAVYYCARGGWELRSLAGGYYGMDVWGQGTTVTVSS
VL: DIVMTQTPFTLSASVGDRVTITCRASQGIRNDLGWYQQKPGKAPKCLIYAASSLLSGVPSRFSGSGSGTEFTLTISSLQPEDFATYYCLQHNSYPWTFGQGTKLEIK
binds: [1] | [2] | [3] | [4]
